# Assay results taken from PMC2943609.
# Legend:
# [1] = molecular target: T1, CggR (Bacillus subtilis, UniProt O32253 1-340); test: two-photon FCCS
# [2] = molecular target: T1, CggR; test: SEC and SAXS
# [3] = molecular target: T1, CggR; test: SEC and SAXS; remark: listed apart in the source
# T1 sequence (O32253 whole entry): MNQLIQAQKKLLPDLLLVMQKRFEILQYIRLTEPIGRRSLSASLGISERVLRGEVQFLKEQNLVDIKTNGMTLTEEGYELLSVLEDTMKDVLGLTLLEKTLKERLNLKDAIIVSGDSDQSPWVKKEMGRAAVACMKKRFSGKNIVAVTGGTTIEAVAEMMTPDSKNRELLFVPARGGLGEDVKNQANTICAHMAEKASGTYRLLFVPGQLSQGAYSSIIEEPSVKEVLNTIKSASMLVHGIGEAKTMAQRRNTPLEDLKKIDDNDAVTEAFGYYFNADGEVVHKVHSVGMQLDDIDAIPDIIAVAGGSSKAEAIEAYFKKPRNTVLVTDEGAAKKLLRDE
binder,measurement,setting,value
"OR 23 bp, fluorescent (mix of two singly labelled duplexes) (dsDNA) DNA 1: TAGCGGGACATATAATGTCCAGC DNA 2: GCTGGACATTATATGTCCCGCTA",binding result,[1],binds
"OR right half-operator, 23 bp (dsDNA) DNA 1: TAGCGGGACATATAATGTCCAGC DNA 2: GCTGGACATTATATGTCCCGCTA",binding result,[2],binds
"OLR full-length gapA operator, 45 bp (dsDNA) DNA 1: TGACGGGACGTTTTTTGTCATAGCGGGACATATAATGTCCAGCAA DNA 2: TTGCTGGACATTATATGTCCCGCTATGACAAAAAACGTCCCGTCA",binding result,[3],binds
